The values below come from PMC7705443 (Cell Research, 2020).

Assay [1] has as its target SARS-CoV RBD (residues 306-527), C-terminal his-tag (SARS-CoV (GenBank NC_004718.3, Tor2), UniProt P59594). Nature of the assay: SPR. Particulars: both partners purified.
The target in assay [2] is SARS-CoV-2 RBD (residues 319-541), C-terminal his-tag (SARS-CoV-2, Wuhan-Hu-1 (MN908947.3), UniProt P0DTC2). Description: SPR. The following applies: both partners purified.

B1: P17 antibody (full-length IgG1) (antibody, V domains shown)
VH: QQLVESGGGVVQPGRSLRLSCAASGFTFSSYAMHWVRQAPGKGLEWVAVISYDGSNKYYADSVKGRFTISRDNSKNTLYLQMNSLRAEDTAVYYCARHATLMNNKDIWGQGTLVTVSS
VL: not shown
notes: also called NAb P17
On to B1, for which the binding result in assay [1] is recorded as “no binding”. Moreover, in assay [2], binding was put at a Kd of 0.096 nM.
